Laboratory results: IntAct's records for PubMed 22111578

B1: ADP-ribosylation factor 5 (Mus musculus), P84084 (parent)
chain: MGLTVSALFSRIFGKKQMRILMVGLDAAGKTTILYKLKLGEIVTTIPTIGFNVETVEYKNICFTVWDVGGQDKIRPLWRHYFQNTQGLIFVVDSNDRERVQESADELQKMLQEDELRDAVLLVFANKQDMPNAMPVSELTDKLGLQHLRSRTWYVQATCATQGTGLYDGLDWLSHELSKR
B2: ADP-ribosylation factor 4 (Mus musculus), P61750 (parent)
chain: MGLTISSLFSRLFGKKQMRILMVGLDAAGKTTILYKLKLGEIVTTIPTIGFNVETVEYKNICFTVWDVGGQDKIRPLWRHYFQNTQGLIFVVDSNDRERIQEGAAVLQKMLLEDELQDAVLLLFANKQDLPNAMAISEMTDKLGLQSLRNRTWYVQATCATQGTGLYEGLDWLSNELSKR

Variants of: B1
Conditions: with caps2_mouse Cadps2, Q8BYR5
Target sequence in this assay (Q8BYR5 whole entry): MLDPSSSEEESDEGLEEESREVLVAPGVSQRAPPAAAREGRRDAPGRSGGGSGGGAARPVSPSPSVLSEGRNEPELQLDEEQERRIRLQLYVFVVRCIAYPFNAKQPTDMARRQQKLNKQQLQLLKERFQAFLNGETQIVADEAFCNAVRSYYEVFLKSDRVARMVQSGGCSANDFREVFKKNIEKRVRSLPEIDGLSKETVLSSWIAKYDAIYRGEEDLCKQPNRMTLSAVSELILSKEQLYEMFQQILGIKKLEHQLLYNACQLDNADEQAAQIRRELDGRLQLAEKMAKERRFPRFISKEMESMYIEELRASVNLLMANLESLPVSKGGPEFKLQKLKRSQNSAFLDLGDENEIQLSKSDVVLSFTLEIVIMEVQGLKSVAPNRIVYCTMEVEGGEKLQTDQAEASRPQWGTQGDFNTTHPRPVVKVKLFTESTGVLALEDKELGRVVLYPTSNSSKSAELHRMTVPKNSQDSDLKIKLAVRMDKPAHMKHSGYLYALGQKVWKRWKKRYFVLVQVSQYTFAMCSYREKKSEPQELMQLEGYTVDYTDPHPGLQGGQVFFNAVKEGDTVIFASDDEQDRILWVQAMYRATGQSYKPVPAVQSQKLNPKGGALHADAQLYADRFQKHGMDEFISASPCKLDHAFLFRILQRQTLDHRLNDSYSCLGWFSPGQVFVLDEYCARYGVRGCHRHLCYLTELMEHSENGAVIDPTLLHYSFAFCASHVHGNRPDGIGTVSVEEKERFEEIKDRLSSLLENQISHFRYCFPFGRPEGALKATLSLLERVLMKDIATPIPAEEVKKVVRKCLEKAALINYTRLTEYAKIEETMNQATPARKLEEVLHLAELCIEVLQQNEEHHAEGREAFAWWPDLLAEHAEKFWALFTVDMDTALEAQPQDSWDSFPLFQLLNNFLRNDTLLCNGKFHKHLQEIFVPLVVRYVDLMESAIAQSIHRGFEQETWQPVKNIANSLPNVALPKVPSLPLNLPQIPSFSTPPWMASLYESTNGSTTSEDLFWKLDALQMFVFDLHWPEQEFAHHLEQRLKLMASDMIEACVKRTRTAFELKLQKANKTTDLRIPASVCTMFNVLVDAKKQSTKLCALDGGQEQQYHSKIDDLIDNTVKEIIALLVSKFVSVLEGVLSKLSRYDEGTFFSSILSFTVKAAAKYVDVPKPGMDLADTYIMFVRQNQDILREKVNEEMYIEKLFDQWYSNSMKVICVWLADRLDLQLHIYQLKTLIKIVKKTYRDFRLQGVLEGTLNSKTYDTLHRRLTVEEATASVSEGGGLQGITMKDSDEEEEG

Variant | effect of a mutation on the interaction
Q71L | disrupting interaction

Variants of: B1
Conditions: with caps2_mouse Cadps2, Q8BYR5
Remark: another data set of the same source
Target sequence in this assay (Q8BYR5 whole entry): as above

Variant | effect of a mutation on the interaction
S6A | disrupting interaction

Variants of: B1
Conditions: with caps2_mouse Cadps2, Q8BYR5
Remark: another data set of the same source
Target sequence in this assay (Q8BYR5 whole entry): as above

Variant | effect of a mutation on the interaction
T31N | increasing interaction

Variants of: B2
Conditions: with caps2_mouse Cadps2, Q8BYR5
Target sequence in this assay (Q8BYR5 whole entry): as above

Variant | effect of a mutation on the interaction
Q71L | disrupting interaction

Variants of: B2
Conditions: with caps2_mouse Cadps2, Q8BYR5
Remark: another data set of the same source
Target sequence in this assay (Q8BYR5 whole entry): as above

Variant | effect of a mutation on the interaction
T31N | increasing interaction
